In assay [1] the target is dog HER3 on CHO-dHER3 cells (dog). Briefly: flow cytometry, transfected CHO cells. Background: In flow cytometry, cells or beads pass a laser one at a time.
For assay [2], the target named is human HER3 on CHO-hHER3 cells (human) (UniProt P21860). Briefly: flow cytometry, transfected CHO cells.
Assay [3] concerns the target monkey (Macaca fascicularis) HER3 on CHO-fasHER3 cells (monkey (Macaca fascicularis)). Nature of the assay: flow cytometry, transfected CHO cells.
In assay [4] the target is mouse HER3 on CHO-mHER3 cells (mouse) (UniProt Q61526). Briefly: flow cytometry, transfected CHO cells.
The target of assay [5] is human MET on NIH3T3-hMET cells (human) (UniProt P08581). Nature of the assay: flow cytometry, transfected NIH3T3 cells.
The target in assay [6] is monkey MET on NIH3T3-fasMET cells (monkey) (UniProt A0M8R7). Briefly: flow cytometry, transfected NIH3T3 cells.
monkey MET on NIH3T3-fasMET cells (monkey), sequence (A0M8R7 25-1381 S170N/I621T limits assumed): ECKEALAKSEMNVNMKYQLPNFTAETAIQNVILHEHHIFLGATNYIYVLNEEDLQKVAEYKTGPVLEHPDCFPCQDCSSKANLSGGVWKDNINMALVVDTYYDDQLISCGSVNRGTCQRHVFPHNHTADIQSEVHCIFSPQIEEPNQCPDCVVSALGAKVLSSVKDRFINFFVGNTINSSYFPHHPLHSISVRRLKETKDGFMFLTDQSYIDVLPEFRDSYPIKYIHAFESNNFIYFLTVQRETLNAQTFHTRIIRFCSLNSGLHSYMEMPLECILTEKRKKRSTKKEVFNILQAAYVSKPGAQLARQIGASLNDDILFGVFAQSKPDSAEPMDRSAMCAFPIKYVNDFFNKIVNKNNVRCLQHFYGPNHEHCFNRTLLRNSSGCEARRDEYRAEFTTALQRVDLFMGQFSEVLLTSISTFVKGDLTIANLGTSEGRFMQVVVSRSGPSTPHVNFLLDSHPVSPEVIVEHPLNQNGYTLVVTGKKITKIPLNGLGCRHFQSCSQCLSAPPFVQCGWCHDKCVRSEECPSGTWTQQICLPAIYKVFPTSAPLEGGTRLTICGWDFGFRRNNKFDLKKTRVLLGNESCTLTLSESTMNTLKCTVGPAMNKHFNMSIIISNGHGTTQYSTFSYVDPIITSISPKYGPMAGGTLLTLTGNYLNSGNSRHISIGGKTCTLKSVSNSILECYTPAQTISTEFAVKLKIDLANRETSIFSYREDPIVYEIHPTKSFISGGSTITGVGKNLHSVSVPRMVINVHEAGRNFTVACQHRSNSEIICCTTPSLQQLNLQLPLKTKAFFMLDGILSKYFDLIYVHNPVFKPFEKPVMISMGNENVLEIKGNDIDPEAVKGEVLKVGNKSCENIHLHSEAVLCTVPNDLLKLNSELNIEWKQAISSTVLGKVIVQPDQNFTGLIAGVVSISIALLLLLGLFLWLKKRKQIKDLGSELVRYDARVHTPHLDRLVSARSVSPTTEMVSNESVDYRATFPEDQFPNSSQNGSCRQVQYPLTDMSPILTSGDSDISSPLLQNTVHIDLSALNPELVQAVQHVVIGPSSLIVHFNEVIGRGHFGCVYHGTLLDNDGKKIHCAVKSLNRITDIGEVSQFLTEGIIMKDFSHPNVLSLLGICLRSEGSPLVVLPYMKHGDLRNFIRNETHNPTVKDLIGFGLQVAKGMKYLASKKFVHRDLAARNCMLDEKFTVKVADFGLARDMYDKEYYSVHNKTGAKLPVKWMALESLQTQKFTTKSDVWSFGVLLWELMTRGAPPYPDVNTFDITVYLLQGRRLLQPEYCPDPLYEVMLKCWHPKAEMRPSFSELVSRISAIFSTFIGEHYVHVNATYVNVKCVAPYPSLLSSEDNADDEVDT

human MET on NIH3T3-hMET cells (human), sequence (P08581 25-1390 limits assumed): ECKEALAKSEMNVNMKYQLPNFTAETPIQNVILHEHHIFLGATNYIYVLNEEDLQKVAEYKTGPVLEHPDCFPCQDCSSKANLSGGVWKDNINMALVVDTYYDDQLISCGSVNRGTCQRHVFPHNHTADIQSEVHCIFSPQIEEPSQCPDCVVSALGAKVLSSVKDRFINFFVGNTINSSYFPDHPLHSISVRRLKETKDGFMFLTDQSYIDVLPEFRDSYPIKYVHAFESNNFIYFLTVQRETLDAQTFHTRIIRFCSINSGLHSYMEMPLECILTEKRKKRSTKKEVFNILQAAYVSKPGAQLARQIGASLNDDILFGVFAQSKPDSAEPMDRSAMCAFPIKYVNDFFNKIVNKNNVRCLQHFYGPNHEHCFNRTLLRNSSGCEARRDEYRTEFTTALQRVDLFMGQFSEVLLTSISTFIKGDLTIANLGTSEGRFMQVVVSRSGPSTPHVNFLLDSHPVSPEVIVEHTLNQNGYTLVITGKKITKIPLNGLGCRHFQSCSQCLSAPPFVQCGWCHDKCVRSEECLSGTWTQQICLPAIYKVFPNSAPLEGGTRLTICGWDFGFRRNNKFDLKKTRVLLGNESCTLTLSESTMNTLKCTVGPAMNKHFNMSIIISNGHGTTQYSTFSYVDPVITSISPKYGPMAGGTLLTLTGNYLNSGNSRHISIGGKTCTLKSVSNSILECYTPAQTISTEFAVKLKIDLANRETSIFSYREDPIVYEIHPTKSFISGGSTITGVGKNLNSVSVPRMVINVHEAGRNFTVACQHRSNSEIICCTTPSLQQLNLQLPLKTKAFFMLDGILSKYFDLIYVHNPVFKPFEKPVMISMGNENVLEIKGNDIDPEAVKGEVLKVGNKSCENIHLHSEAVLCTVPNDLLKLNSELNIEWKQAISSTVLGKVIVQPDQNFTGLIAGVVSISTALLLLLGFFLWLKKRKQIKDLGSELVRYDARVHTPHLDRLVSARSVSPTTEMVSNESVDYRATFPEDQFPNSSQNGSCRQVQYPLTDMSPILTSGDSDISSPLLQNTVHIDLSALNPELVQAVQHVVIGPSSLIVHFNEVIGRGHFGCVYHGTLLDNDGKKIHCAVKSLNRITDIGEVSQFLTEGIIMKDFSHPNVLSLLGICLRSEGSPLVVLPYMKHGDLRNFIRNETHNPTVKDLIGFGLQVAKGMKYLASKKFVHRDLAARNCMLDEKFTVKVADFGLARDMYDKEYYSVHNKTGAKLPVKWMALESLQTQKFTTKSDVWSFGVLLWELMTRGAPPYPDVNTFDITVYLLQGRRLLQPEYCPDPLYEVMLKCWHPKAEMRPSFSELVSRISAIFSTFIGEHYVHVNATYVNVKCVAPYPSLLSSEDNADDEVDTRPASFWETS
mouse HER3 on CHO-mHER3 cells (mouse), sequence (Q61526 20-641): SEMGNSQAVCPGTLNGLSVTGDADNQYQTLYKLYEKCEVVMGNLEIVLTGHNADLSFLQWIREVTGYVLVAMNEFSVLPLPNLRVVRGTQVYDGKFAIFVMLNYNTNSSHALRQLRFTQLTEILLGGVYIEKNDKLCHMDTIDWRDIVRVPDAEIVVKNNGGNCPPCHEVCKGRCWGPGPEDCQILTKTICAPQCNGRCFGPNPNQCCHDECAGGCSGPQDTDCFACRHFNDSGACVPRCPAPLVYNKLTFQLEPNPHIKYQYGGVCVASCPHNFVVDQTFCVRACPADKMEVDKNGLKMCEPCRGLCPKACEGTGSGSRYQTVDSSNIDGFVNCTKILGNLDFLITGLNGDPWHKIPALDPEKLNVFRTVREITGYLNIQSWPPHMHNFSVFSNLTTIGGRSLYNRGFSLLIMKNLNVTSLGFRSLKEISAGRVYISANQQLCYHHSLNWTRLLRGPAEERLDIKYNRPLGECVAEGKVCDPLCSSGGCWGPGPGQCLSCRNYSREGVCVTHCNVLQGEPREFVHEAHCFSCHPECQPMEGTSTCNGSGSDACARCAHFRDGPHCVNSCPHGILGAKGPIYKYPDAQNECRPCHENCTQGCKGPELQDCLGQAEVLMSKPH

Take NC: the Percentage of Positive Cells was found to be 1% in assay [1], 0.4% in assay [2], 0.2% in assay [3] and 0.2% in assay [4]. For the same substance, the Positive Cells is 2.1% in assay [2], 3.2% in assay [3], 3.9% in assay [5] and 0.5% in assay [6].

Regarding NC + secondary antibody, the Percentage of Positive Cells in assay [1] turned out to be 1.6%; in assay [2] it was 1.7%; in assay [3] it was 0.9%; in assay [4] it was 0.5%. Also, the Positive Cells in assay [2] came out at 2.8%; in assay [3], 2.7%; in assay [5] it was 2.4%; in assay [6] it was 0.6%.
